In US20100016697:

How the values were obtained:
[1] = tested on: LTBP-1 fluorogenic peptide SCJJ-1
[2] = tested on: MT1-MMP specific fluorogenic substrate MCA-Pro-Leu-Ala-Cys(p-OmeBz)-Trp-Ala-Arg(Dpa)-NH2

Chain of MMP-8 (Calbiochem) (chain, as listed by the source): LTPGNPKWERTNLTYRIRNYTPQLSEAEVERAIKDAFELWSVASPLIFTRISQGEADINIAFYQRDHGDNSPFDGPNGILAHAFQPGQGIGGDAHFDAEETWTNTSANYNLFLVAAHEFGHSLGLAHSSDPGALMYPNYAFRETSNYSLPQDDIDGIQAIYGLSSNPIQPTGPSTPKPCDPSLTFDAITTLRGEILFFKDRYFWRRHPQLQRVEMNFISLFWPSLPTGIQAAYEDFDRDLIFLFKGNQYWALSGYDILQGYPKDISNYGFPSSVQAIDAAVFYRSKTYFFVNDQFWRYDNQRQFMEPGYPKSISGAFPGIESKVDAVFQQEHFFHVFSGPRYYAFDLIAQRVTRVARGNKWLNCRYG
Chain of MMP-2 catalytic domain (part of the MMP-2/-9 catalytic domain cocktail) (chain, as listed by the source): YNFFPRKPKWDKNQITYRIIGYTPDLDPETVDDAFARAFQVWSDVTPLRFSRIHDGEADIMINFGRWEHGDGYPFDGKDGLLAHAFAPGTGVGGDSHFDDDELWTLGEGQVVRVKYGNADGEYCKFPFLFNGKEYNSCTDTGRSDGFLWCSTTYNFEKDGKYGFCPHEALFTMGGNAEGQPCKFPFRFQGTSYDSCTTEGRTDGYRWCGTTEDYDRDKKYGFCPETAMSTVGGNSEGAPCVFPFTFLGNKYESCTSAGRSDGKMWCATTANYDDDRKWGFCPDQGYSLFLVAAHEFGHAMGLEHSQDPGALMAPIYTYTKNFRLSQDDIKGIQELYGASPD
Chain of MMP-9 (part of MMP-2/9, Chemicon) (chain, as listed by the source): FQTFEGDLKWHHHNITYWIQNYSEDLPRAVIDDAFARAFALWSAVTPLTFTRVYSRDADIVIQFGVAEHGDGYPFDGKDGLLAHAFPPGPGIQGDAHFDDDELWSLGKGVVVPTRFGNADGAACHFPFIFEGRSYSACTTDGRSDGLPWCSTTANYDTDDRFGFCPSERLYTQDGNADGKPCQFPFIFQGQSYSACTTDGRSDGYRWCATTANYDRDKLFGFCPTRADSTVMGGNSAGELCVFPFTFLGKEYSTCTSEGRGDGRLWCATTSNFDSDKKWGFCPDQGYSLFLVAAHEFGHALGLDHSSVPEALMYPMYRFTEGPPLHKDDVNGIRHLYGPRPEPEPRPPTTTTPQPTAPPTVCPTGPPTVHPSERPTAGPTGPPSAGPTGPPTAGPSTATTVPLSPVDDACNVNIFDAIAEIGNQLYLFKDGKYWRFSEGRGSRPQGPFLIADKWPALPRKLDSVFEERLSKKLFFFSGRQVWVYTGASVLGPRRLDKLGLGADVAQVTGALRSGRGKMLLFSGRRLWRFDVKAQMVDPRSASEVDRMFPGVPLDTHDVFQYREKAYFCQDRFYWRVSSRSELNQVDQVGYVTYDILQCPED
Chain of MMP-9 catalytic domain (part of the MMP-2/-9 catalytic domain cocktail) (chain, as listed by the source): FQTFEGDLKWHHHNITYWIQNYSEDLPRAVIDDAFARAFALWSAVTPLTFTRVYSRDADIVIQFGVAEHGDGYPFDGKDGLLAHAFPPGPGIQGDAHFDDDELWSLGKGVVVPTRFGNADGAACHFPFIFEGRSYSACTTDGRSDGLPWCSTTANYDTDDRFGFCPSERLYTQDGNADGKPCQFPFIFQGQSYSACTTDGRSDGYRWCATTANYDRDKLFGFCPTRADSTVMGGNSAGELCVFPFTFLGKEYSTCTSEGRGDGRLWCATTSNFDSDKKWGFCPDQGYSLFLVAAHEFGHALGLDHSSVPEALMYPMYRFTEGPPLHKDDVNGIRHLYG

| Substance | fluorescent emission from the LTBP-1 substrate [1] | fluorescence emission (cleavage of the quenched fluorogenic substrate) [2] |
| --- | --- | --- |
| MMP-2 catalytic domain (part of the MMP-2/-9 catalytic domain cocktail) | Incubation with an MMP-2/-9 catalytic domain cocktail (10 ug/mL) caused no fluorescent emission from the LTBP-1 substrate. |  |
| MMP-8 (Calbiochem) |  | Incubation with MMP-2/9, MMP-8, or ADAM-10 and 17 alone failed to cause fluorescence emission from the MT1-MMP substrate. |
| MMP-9 (part of MMP-2/9, Chemicon) |  | Incubation with MMP-2/9, MMP-8, or ADAM-10 and 17 alone failed to cause fluorescence emission from the MT1-MMP substrate. |
| MMP-9 catalytic domain (part of the MMP-2/-9 catalytic domain cocktail) | Incubation with an MMP-2/-9 catalytic domain cocktail (10 ug/mL) caused no fluorescent emission from the LTBP-1 substrate. |  |
